# T1: Mutant OB chain (short chain, hinge-CH2-CH3 with T394D, P395D, P396D) [IgG part: P01857]
# T1 chain: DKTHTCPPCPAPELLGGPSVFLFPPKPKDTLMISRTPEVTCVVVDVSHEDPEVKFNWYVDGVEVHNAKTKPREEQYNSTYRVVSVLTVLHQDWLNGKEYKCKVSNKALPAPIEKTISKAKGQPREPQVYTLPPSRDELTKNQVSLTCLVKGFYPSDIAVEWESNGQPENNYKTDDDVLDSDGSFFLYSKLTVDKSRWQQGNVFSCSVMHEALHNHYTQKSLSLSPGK
# B1: Mutant OA chain (long chain, CH1-hinge-CH2-CH3 with P395K, P396K, V397K) (protein)
# chain: ASTKGPSVFPLAPSSKSTSGGTAALGCLVKDYFPEPVTVSWNSGALTSGVHTFPAVLQSSGLYSLSSVVTVPSSSLGTQTYICNVNHKPSNTKVDKKVEPKSCDKTHTCPPCPAPELLGGPSVFLFPPKPKDTLMISRTPEVTCVVVDVSHEDPEVKFNWYVDGVEVHNAKTKPREEQYNSTYRVVSVLTVLHQDWLNGKEYKCKVSNKALPAPIEKTISKAKGQPREPQVYTLPPSRDELTKNQVSLTCLVKGFYPSDIAVEWESNGQPENNYKTTKKKLDSDGSFFLYSKLTVDKSRWQQGNVFSCSVMHEALHNHYTQKSLSLSPGK
# Target: T1, Mutant OB chain (short chain, …)
# Assay: co-transfection of OA and OB in HEK293, protein A bead pull-down, SDS-PAGE (FIGS. 3, 4 and 6)
protein,measurement,value
B1,yield of heterodimer,high yield of heterodimer (above 95%)
